B1: AADC-IKVAV: aromatic-L-amino-acid decarboxylase (AADC) protein fused with short peptide IKVAV (SEQ ID NO: 23); CDS SEQ ID NO: 21 (protein)
chain: MRGSHHHHHHGMASMTGGQQMGRDLYDDDDKDPMNASEFRRRGKEMVDYMANYMEGIEGRQVYPDVEPGYLRPLIPAAAPQEPDTFEDIINDVEKIIMPGVTHWHSPYFFAYFPTASSYPAMLADMLCGAIGCIGFSWAASPACTELETVMMDWLGKMLELPKAFLNEKAGEGGGVIQGSASEATLVALLAARTKVIHRLQAASPELTQAAIMEKLVAYSSDQAHSSVERAGLIGGVKLKAIPSDGNFAMRASALQEALERDKAAGLIPFFMVATLGTTTCCSFDNLLEVGPICNKEDIWLHVDAAYAGSAFICPEFRHLLNGVEFADSFNFNPHKWLLVNFDCSAMWVKKRTDLTGAFRLDPTYLKHSHQDSGLITDYRHWQIPLGRRFRSLKMWFVFRMYGVKGLQAYIRKHVQLSHEFESLVRQDPRFEICVEVILGLVCFRLKGSNKVNEALLQRINSAKKIHLVPCHLRDKFVLRFAICSRTVESAHVQRAWEHIKELAADVLRAEREGGSGSSGGSGGSGGSGIKVAV
modifications: misc_feature 1..1602 Synthetic: AADC-IKVAV

Columns and labels:
mice = assay: Weekly repeated RAID open field test over three weeks; assay type: in vivo, mouse
Excerpt: FIG. 15 includes data related to protein delivery and behavioral testing protocol repeated weekly over a course of three weeks. FIG. 15a illustrates weekly RAID-induced behavioral modulation including a first counterclockwise rotations graph measured in the open field test before and after administration of L-DOPA. FIG. 15b illustrates weekly RAID-induced behavioral modulation including a second counterclockwise rotations graph measured in the open field test before and after administration of L-DOPA. FIG. 15c illustrates weekly RAID-induced behavioral modulation including a first clockwise rotations graph measured in the open field test before and after administration of L-DOPA. FIG. 15d illustrates weekly RAID-induced behavioral modulation including a second clockwise rotations graph measured in the open field test before and after administration of L-DOPA. Data is presented as mean±s.e.m. n=7 mice for FUS alone group and n=14, 13, and 11 mice for the FUS+mAADC-IKVAV (SEQ ID NO: 23) group in weeks 1, 2, and 3, respectively; *P<0.05, **P<0.01, ns (not significant), using Two-way ANOVA with Sidak's multiple comparison test.
Locomotor behavior test—Two groups of mice underwent FUS-BBBO targeting two sites at left striatum immediately after intravenous injection of recombinant protein AADC-IKVAV (SEQ ID NO: 23) (n=14 mice for FUS+AADC-IKVAV group, 20 mg/mL, 250 mg/kg) or equivalent volume of PBS buffer (n=11 mice for FUS alone group). Another group without FUS-BBBO procedure served as wild type control (n=12 mice for WT group). After 46 h, the first session of behavioral test was performed in a custom-made non-transparent open field box (30.5 cm×30.5 cm) as a baseline. Each mouse was individually placed into the apparatus center with a light intensity and background noise at ˜320 lux and 46 dB (400 Hz peak), respectively. After a habituation period of 5 min, the locomotor activity of a freely-moving mouse was recorded for 15 min by a video tracking system (Stoelting Co.) consisting of an overhead camera connected to a computer with Any-Maze software. […]

[1] = AADC immunostaining, AADC-IKVAV retention and spatial targeting after FUS-BBBO; assay type: in vivo, mouse; details: for local AADC levels (AADC+ pixels) in FUS-targeted region vs FUS alone control group: 250 mg/kg i.v., one FUS site left CPu, 2 days
Method: c-Fos […] injection of recombinant protein AADC-IKVAV (SEQ ID NO: 23) (20 mg/mL, 250 mg/kg) or equivalent volume of PBS buffer (n=5 mice for FUS alone+L-DOPA group). After 48 h, the mice were given a single dose of L-DOPA (0.1 mg/mL, 2 mg/kg, i.p.; Spectrum Chemical) 10 min after injection of carbidopa (1 mg/mL, 25 mg/kg, i.p.; Sigma-Aldrich), both of which were dissolved in sterile saline containing 2.5 and 0.125 mg/mL ascorbic acid. […] After 2 hours, the mice were euthanized by transcardial perfusion, and their brains were extracted and sliced into 50 μm coronal sections following 24-48 hours of fixation.
Immunostaining of AADC was performed as follows: (1) incubate the brain sections in 1× antigen retrieval solution (catalog number: 00-4955-58; Invitrogen) overnight in a 60° C. water bath; (2) block sections in 5% normal goat serum (SouthernBiotech) and 0.3% Triton-X solution in PBS for 1 h at room temperature; (3) incubate with primary rabbit anti-AADC antibody (1:500, 10166-1-AP, Proteintech) for staining AADC-IKVAV (SEQ ID NO: 23) in blocking buffer for 2 h at room temperature; (4) after washing three times in PBS (15 min each, the same as below), incubate with secondary goat anti-rabbit antibody conjugated to Alexa Fluor 647 (1:750, A-21245, ThermoFisher) in blocking buffer for 2 h at room temperature; (5) after washing three times, mount sections onto glass slides using the mounting media (Vector Laboratories) with DAPI and air-dry overnight in dark before imaging.
To analyze AADC-IKVAV (SEQ ID NO: 23) retention, as depicted in FIG. 7 and FIG. 11, stained coronal sections within the striatum were captured using a ×4 objective in DAPI (nuclei, not shown) and far-red (AADC) channels. Among these sections, the one displaying the most intense AADC fluorescence was chosen as the representative for each mouse. Subsequently, the selected sections were further examined at a higher magnification (×40 objective) for quantitative comparison. […] This area was imaged using a ×40 objective. Additionally, corresponding contralateral areas in the right striatum were also imaged.
To quantify the AADC-IKVAV (SEQ ID NO: 23) retention in the FUS targeted region, as shown in FIG. 7 and FIG. 11, the histological images were analyzed using ImageJ (version 1.53t). Specifically, the average pixel intensity of the AADC-IKVAV (SEQ ID NO: 23) channel image captured on the contralateral side of each representative section was calculated to establish the background for that section.
Immediately afterwards, the mice were sacrificed for immunohistochemical analysis of AADC-IKVAV (SEQ ID NO: 23) retention as already mentioned. The section displaying the strongest AADC fluorescence was selected as the representative for each mouse, and its adjacent section was stained separately to identify c-Fos positive cells. […]

[2] = behavior study, FUS+AADC-IKVAV+L-DOPA, two FUS sites

| Molecule | reduction in clockwise rotations after L-DOPA (mice; week 1, FUS-alone group) | reduction in counter-clockwise (ipsilateral) rotations after L-DOPA (mice; week 1, control mice receiving FUS alone) | clockwise rotations after L-DOPA (mice; week two, FUS-alone control group) | local AADC levels (AADC+ pixels) in FUS-targeted region vs FUS alone control group ([1]; with subsequent L-DOPA 2 mg/kg i.p.) | local AADC levels (AADC+ pixels) in FUS-targeted region vs FUS alone control group ([1]; without L-DOPA) | mice with detectable retention within the CPu ([1]; 11 mice receiving AADC-IKVAV) | levels of local AADC (AADC+ pixels, left CPu) vs FUS alone group [1, 2] | levels of local AADC (AADC+ pixels, left CPu) vs untreated group [1, 2] | presence of delivered enzyme in the FUS-targeted area by immunostaining ([1]; behavior study, two FUS sites, 2 days after delivery) | mice with efficient retention within 100 μm of the CPu ([1]; remaining mice of 11) |
| --- | --- | --- | --- | --- | --- | --- | --- | --- | --- | --- |
| N[C@@H](Cc1ccc(O)c(O)c1)C(=O)O [L-DOPA, reference compound] | 53±18% | not observed | no significant effects | – | – | – | – | – | – | – |
| B1 | – | – | – | 38.5 (±6.1) fold | 41.8 (±8.9) fold | 73% | 13.3 (±2.8) fold | 93.3(±19.5) fold | present in the FUS-targeted area in all mice | 27% |

Source: patent US20250195629A1, “SITE-SPECIFIC BRAIN THERAPEUTICS” (William Marsh Rice University, priority 2023, published 2025)
